Assay results taken from publication PMC5871853, “First insights of peptidoglycan amidation in Gram-positive bacteria - the high-resolution crystal structure of Staphylococcus aureus glutamine amidotransferase GatD” (Scientific Reports, 2018).

T1: S. aureus GatD (Staphylococcus aureus, UniProt A0A0H2WZ38)
T1 construct: full-length, 243 residues; pOPINF vector, E. coli Lemo21(DE3), IMAC and SEC; crystallised without MurT; dimer in crystal non-physiological
T1 sequence (A0A0H2WZ38 1-243): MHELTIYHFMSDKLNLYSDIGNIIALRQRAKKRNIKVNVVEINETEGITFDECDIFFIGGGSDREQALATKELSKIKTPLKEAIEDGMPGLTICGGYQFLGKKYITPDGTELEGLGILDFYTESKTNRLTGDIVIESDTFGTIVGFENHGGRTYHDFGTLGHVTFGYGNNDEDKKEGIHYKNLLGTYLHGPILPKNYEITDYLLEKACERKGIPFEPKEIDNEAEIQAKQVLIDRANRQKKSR

T2: S. aureus GatD C94A (from pET28a-murT-gatD-His6C94A) (Staphylococcus aureus strain COL, UniProt A0A0H2WZ38 1-243, C94A)
T2 sequence: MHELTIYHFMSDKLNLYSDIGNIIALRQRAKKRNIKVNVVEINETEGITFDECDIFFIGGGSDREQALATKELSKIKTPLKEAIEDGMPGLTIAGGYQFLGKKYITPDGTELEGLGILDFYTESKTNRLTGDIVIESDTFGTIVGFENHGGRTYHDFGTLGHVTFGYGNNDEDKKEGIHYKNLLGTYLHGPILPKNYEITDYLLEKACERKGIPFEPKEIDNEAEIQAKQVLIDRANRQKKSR

T3: S. aureus GatD H189A (from pET28a-murT-gatD-His6H189A) (Staphylococcus aureus strain COL, UniProt A0A0H2WZ38 1-243, H189A)
T3 sequence: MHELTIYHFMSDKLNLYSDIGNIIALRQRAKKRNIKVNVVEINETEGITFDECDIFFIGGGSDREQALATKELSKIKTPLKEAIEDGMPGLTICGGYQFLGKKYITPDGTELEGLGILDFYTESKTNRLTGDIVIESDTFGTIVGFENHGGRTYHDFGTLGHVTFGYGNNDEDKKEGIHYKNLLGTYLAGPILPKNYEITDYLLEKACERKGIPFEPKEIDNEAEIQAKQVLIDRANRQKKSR

T4: S. aureus GatD R128A (from pET28a-murT-gatD-His6R128A) (Staphylococcus aureus strain COL, UniProt A0A0H2WZ38 1-243, R128A)
T4 sequence: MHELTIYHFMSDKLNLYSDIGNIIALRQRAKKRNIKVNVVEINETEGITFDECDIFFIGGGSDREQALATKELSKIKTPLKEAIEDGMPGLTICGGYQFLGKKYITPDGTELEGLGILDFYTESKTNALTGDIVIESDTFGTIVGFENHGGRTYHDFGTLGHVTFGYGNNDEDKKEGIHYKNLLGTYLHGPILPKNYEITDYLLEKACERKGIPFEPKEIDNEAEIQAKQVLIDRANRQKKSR

T5: S. aureus GatD wt (from pET28a-murT-gatD-His6) (Staphylococcus aureus strain COL, UniProt A0A0H2WZ38 1-243)
T5 construct: GatD, glutamine amidotransferase, Staphylococcus aureus strain COL, 243 amino acids; coding region amplified with murT as the murT-gatD operon; also called glutamine amidotransferase GatD
T5 sequence (looked up): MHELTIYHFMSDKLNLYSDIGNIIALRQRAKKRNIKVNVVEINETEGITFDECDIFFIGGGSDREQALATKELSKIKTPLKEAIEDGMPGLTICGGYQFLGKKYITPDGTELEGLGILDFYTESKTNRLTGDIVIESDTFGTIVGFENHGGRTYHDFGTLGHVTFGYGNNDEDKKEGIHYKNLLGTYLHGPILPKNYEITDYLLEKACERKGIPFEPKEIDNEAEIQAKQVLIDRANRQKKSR


Experiments:
[1] = molecular target: T1, S. aureus GatD; test: X-ray crystal structure, […] Å; assay type: binding; details: co-purified glutamine; bound at surface of chain A to R128, outside the active site; MurT absent
[2] = molecular target: S. aureus MurT-GatD complex (Staphylococcus aureus, UniProt A0A0H2WZ38); details: 875 µM Gln, 35 µM complex, no lipid II; 50 mM Tris-d11, 500 mM NaCl, 10 mM MgCl2, pH meter reading 7.9 in D2O, 293 K
[3] = molecular target: T2, S. aureus GatD C94A (from …); test: co-purification (IMAC + SEC, SDS-PAGE); details: partners not purified
[4] = molecular target: T3, S. aureus GatD H189A (from …); test: co-purification (IMAC + SEC, SDS-PAGE); details: partners not purified
[5] = molecular target: T4, S. aureus GatD R128A (from …); test: co-purification (IMAC + SEC, SDS-PAGE); details: partners not purified
[6] = molecular target: T5, S. aureus GatD wt (from …); test: co-purification (IMAC + SEC, SDS-PAGE); MurT and GatD-His6 co-expressed in E. coli from one plasmid; HisTrap then Superdex 200 in 100 mM Tris-HCl pH 8.2, 500 mM NaCl, 10 mM MgCl2, 5 mM 2-mercaptoethanol; molar ratio read from a 12% SDS-PAGE gel of the final samples; details: partners not purified

Molecule	X-ray crystal structure, 1.85 Å [1]	1H-NMR glutaminase assay (Gln to Glu) [2]	stoichiometry N [3]	stoichiometry N [4]	stoichiometry N [5]	stoichiometry N [6]
NC(=O)CC[C@H](N)C(=O)O [glutamine]	S. aureus GatD crystallized in the presence of its substrate, glutamine	MurT-GatD wt can convert glutamine into glutamate with a first order rate constant				
S. aureus MurT (enzyme, Staphylococcus aureus strain COL, UniProt A0A0H2WZQ7 1-437, looked up, MurT, Mur ligase family member of the MurT-GatD complex, Staphylococcus aureus strain COL; coding region amplified with gatD as the murT-gatD operon) MRQWTAIHLAKLARKASRAVGKRGTDLPGQIARKVDTDILRKLAEQVDDIVFISGTNGKTTTSNLIGHTLKANNIQIIHNNEGANMAAGITSAFIMQSTPKTKIAVIEIDEGSIPRVLKEVTPSMMVFTNFFRDQMDRFGEIDIMVNNIAETISNKGIKLLLNADDPFVSRLKIASDTIVYYGMKAHAHEFEQSTMNESRYCPNCGRLLQYDYIHYNQIGHYHCQCGFKREQAKYEISSFDVAPFLYLNINDEKYDMKIAGDFNAYNALAAYTVLRELGLNEQTIKNGFETYTSDNGRMQYFKKERKEAMINLAKNPAGMNASLSVGEQLEGEKVYVISLNDNAADGRDTSWIYDADFEKLSKQQIEAIIVTGTRAEELQLRLKLAEVEVPIIVERDIYKATAKTMDYKGFTVAIPNYTSLAPMLEQLNRSFEGGQS			1 MurT:GatD molar ratio	1 MurT:GatD molar ratio	1 MurT:GatD molar ratio	1 MurT:GatD molar ratio
